In patent publication US20210032334A1 (Dana-Farber, published 2021):

Biological target: T1, full-length murine BTNL2 expressed on 300.19 cells (mouse)
T1 construct: No signal peptide limits are stated; also called mBTNL2; mouse BTNL2
T1 chain: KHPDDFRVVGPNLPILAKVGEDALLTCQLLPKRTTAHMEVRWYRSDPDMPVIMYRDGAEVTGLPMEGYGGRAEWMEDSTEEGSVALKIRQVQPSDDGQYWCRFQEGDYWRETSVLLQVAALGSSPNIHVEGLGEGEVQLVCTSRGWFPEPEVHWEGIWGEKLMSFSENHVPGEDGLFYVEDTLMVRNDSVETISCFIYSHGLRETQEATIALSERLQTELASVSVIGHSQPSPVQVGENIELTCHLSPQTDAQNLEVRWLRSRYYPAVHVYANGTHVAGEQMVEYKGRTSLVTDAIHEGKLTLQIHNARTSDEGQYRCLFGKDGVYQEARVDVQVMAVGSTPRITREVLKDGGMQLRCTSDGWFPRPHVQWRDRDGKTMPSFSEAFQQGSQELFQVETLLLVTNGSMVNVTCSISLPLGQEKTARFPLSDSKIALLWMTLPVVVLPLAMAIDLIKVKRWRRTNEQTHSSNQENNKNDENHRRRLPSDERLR
Assay: flow cytometry, cell binding on 300.19 cells expressing full-length mBTNL2
Method: All rat anti-mouse BTNL2 mAbs were tested for reactivity with specific Ig domains of BTNL2 by flow cytometry on 300.19 cells transfected with full length murine BTNL2 cDNA, murine BTLN2 (first IgV domain)-murine PD-L1 (IgC, transmembrane and cytoplasmic domains, or BTNL2 (first IgV domain and 2nd Ig domain and short exon 4)-human TIM-1 mucin-transmembrane-cytoplasmic domains and for lack of reactivity with untransfected 300.19 cells. In particular, mouse pre-B cell line 300.19 cells were transfected by electroporation with full length murine BTNL2 cDNA, murine BTLN2 (first IgV domain)-murine PD-L1 (IgC, transmembrane and cytoplasmic domains, or BTNL2 (first IgV domain and 2nd Ig domain and short exon 4)-human TIM-1 mucin-transmembrane-cytoplasmic domains in the pEFGF-Puro expression vector. Cells were selected in media containing puromycin, sorted, and subcloned. […] Cells were stained with target antibodies and isotype controls using standard flow cytometry procedures, and analyzed on a FACSCanto (BD Biosciences) and FlowJo 9.2 software (TreeStar). […]
A number of anti-BTNL2 monoclonal antibodies were generated and analyzed (see FIGS. 3C-3D and Table 3 below for details), including extensive analysis of two exemplary anti-BTNL2 monoclonal antibodies that were prepared in rat against mouse BTNL2 (mBTNL2). […]

B1: anti-mouse BTNL2 monoclonal antibody clone 311.8A7 (antibody, rat IgG1, V domains shown)
VH: EVRLVESGGGLVQPGRSLKLSCAASGFTFRIFYMAWVRQSPTKGLEWVAYISAGSDFTYYRDSVKGRFTISRDDAKSTLYLEMDSLRSEDTATYHCTTGYRYNFAYWGQGTLVTVSS
VL: DIQLTQSPSSLPASLGERVTISCRSSQDINSHLNWYQQKPDGTIKALIYQTSNLQSGVPSRFSGSGSGADYSLTISSLEPEDFAIFHCQQDADFPYTFGAGTKLELK
notes: Rat IgG1 (kappa) from a hybridoma, 311 series
- EC50: 0.054 µg/mL
